Assay results from patent US20220106360A1 (UNIVERSITY OF PITTSBURGH OF THE COMMONWEALTH SYSTEM OF …, published 2022).

Tests used:
[1] = target: T1, Kv2.1 (endogenous, rat cortical neurons) (rat, UniProt P15387 1-857); assay: proximity ligation assay in fixed rat cortical neurons
T1 construct: Endogenous channel in fixed, permeabilised primary cortical neurons of Sprague-Dawley rats, detected with a rabbit anti-Kv2.1 antibody; also called delayed-rectifying voltage-gated potassium channel Kv2.1
T1 sequence: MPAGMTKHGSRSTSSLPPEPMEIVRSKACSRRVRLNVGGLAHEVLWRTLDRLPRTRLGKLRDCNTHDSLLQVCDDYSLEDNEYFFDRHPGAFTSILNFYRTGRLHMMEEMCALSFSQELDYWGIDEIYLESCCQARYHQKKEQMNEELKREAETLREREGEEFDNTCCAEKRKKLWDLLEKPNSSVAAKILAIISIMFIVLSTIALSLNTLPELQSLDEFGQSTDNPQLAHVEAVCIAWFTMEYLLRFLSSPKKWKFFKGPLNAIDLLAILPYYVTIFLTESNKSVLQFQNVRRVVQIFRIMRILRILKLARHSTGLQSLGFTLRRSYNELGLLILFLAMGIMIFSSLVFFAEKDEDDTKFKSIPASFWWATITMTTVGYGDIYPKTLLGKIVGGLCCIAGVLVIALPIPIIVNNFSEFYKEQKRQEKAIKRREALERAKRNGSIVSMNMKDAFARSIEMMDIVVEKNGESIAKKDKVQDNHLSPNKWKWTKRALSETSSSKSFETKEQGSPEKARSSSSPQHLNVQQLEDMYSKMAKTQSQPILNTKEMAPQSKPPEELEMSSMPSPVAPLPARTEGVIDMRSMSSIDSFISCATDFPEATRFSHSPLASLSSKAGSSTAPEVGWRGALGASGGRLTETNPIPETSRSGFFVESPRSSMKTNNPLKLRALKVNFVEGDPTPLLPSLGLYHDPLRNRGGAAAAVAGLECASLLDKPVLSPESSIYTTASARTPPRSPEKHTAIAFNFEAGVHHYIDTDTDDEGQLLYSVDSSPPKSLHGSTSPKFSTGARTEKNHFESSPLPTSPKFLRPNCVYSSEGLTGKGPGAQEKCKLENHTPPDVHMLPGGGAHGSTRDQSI
Procedure: Duolink proximity ligation assay (PLA) technology (Sigma-Aldrich, St. Louis, Mo.) was utilized to assess in situ protein-protein interaction between Kv2.1 and vesicle-associated molecular protein (VAMP)-associated protein A (VAPA). Primary cortical neurons on glass coverslips were treated in 24-well plates with vehicle (dH₂O), TAT-Sc-2 (10 μM), or TAT-DP-2 (10 μM) for 2 hours at 37° C./5% CO₂. Neurons were then rinsed with 2 mL ice-cold sterile PBS and then transferred to 1 mL 4% paraformaldehyde (PFA) in PBS for 20 minutes to fix. Coverslips were transferred to 1 mL 0.1 M glycine (in PBS) to quench fixation and rinsed three times in 1 mL PBS. Membrane permeabilization was accomplished with 1 mL 0.25% Triton X-100 (Sigma-Aldrich, St. Louis, Mo.) and non-specific binding was blocked with 10% bovine serum albumin (in PBS) for 30 minutes. Primary immunolabeling was accomplished by 18-24 hour exposure to rabbit anti-Kv2.1 polyclonal antibody (1:500 in 3% BSA; RRID AB_2040162; Alomone Labs, Jerusalem, Israel), mouse anti-VAPA monoclonal antibody (1:500 in 3% BSA; RRID AB_2722702; UC Davis/NeuroMab Facility), and chicken anti-MAP2 polyclonal antibody (1:1000 in 3% BSA; RRID AB_5392; Abcam, Cambridge, Mass.) in 3% BSA (in PBS) at 4° C. under gentle agitation. […]

[2] = target: T2, VAPA 1-242 expressed from pEGFP-N1-VAPA; 1-242 (Addgene #18874) in HEK293 cells (UniProt Q9Z270 1-242); assay: peptide spot array (far western) with lysate of HEK293 cells expressing VAPA 1-242, anti-VAPA detection
T2 construct: range 1-242; Used as a whole lysate of transfected HEK293 cells (1 mg/ml total protein), detected with anti-VAPA antibody; also called VAMP-associated protein A; VAPA proteins; not shown: EGFP implied by the vector name pEGFP-N1
T2 sequence (looked up): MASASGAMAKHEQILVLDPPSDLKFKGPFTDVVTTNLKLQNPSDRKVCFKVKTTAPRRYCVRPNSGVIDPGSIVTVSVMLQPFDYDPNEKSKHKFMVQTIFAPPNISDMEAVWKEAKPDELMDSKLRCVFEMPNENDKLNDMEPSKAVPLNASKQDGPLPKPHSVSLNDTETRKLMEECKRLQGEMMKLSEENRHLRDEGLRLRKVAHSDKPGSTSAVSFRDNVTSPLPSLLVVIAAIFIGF
Procedure: Standard 9-fluorenylmethoxy carbonyl chemistry was used to synthesize peptides and spot them onto Celluspots nitrocellulose disks prederivatized with a polyethylene glycerol spacer (Intavis), using the Respep peptide synthesizer. The peptides were spotted on 20 membranes fitted on microscope glass slides (Intavis) using an Intavis MultiPep robot. For hybridization and immunoblotting of arrays, Celluspots slides were washed in TBST (50 mM Tris-HCl, pH 7.4, 150 mM NaCl, 0.1% Tween 20) for 10 minutes, […] blocked for 1 hour at room temperature (RT) with gentle shaking in TBST containing 5% nonfat dry milk. Lysates from HEK293 cells transfected as before (Yeh et al., J Neurosci. 37: 5648-5658, 2017; Yeh et al., Proc Natl Acad Sci USA. 116: 15696-15607, 2019; Dustrude et al., Proc Natl Acad Sci USA. 113: E8443-E8452, 2016) with pEGFP-N1-VAPA; 1-242 (Addgene #18874) were made in 20 mM Tris, 50 mM NaCl, 2 mM MgCl₂, 1% Tergitol, 0.5% sodium deoxycholate, 0.1% sodium dodecyl sulfate with protease (Cat #B14002, Bimake), phosphatase (Cat #B15002, Bimake) inhibitor cocktails and 5 U/ml of universal nuclease (Cat #88702, Thermofisher) added extemporaneously. The concentration of lysates was measured by BCA (Cat #23227, Thermofisher) and peptide arrays were incubated with 1 mg/ml of total protein overnight at 4° C. (Yeh et al., J Neurosci. 37: 5648-5658, 2017; Yeh et al., Proc Natl Acad Sci USA. 116: 15696-15607, 2019; Moutal et al., Pain. 158: 2203-2221, 2017). Peptide arrays were washed 3 times for 5 minutes at RT with TBST and incubated with the primary antibody anti-VAPA (RRID AB_2722707; UC Davis/NIH NeuroMab Facility) for 2 hours at RT with gentle shaking in TBST, 5% BSA. After washing with TBST, the membranes were incubated in secondary antibody (IRDye® 800CW goat anti-mouse IgG secondary antibody; RRID AB_621842; Li-Cor) for 45 minutes, washed 3 times for 5 minutes in TBST, and visualized by infrared fluorescence (Li-Cor). Four independent peptide spot arrays were used in this study. Fluorescence intensity was analyzed with Image studio (Li-Cor).

B1: VAPA (endogenous, rat cortical neurons) (other, UniProt Q9Z270 2-249, looked up)
chain: ASASGAMAKHEQILVLDPPSDLKFKGPFTDVVTTNLKLQNPSDRKVCFKVKTTAPRRYCVRPNSGVIDPGSIVTVSVMLQPFDYDPNEKSKHKFMVQTIFAPPNISDMEAVWKEAKPDELMDSKLRCVFEMPNENDKLNDMEPSKAVPLNASKQDGPLPKPHSVSLNDTETRKLMEECKRLQGEMMKLSEENRHLRDEGLRLRKVAHSDKPGSTSAVSFRDNVTSPLPSLLVVIAAIFIGFFLGKFIL
notes: whole, on cells; Endogenous ER protein inside fixed, permeabilised neurons, detected with a mouse anti-VAPA antibody; also called VAMP-associated protein A
[1]
  binding result: binds

B2: DP-2 peptide (SIDSFTS) (peptide)
peptide: SIDSFTS
notes: Synthesised and spotted on Celluspots membrane through a polyethylene glycerol spacer (peptide spot array); also called declustering peptide 2
[2]
  binding result: no binding (tested: lysate at 1 mg/ml of total protein)

## DIDDFTD [Ser to Asp mutant of DP-2 (DIDDFTD)]
[2]
  binding result: no binding (tested: lysate at 1 mg/ml of total protein)

## DIDDFTS [Ser to Asp mutant of DP-2 (DIDDFTS)]
[2]
  binding result: no binding (tested: lysate at 1 mg/ml of total protein)

## DIDSFTD [Ser to Asp mutant of DP-2 (DIDSFTD)]
[2]
  binding result: no binding (tested: lysate at 1 mg/ml of total protein)

## DIDSFTS [Ser to Asp mutant of DP-2 (DIDSFTS)]
[2]
  binding result: no binding (tested: lysate at 1 mg/ml of total protein)

## SIDDFTD [Ser to Asp mutant of DP-2 (SIDDFTD)]
[2]
  binding result: no binding (tested: lysate at 1 mg/ml of total protein)

## SIDDFTS [Ser to Asp mutant of DP-2 (SIDDFTS)]
[2]
  binding result: no binding (tested: lysate at 1 mg/ml of total protein)

## SIDSFTD [Ser to Asp mutant of DP-2 (SIDSFTD)]
[2]
  binding result: no binding (tested: lysate at 1 mg/ml of total protein)

## EIDEFTE [Ser to Glu mutant of DP-2 (EIDEFTE)]
[2]
  binding result: no binding (tested: lysate at 1 mg/ml of total protein)

## EIDEFTS [Ser to Glu mutant of DP-2 (EIDEFTS)]
[2]
  binding result: no binding (tested: lysate at 1 mg/ml of total protein)

## EIDSFTE [Ser to Glu mutant of DP-2 (EIDSFTE)]
[2]
  binding result: no binding (tested: lysate at 1 mg/ml of total protein)

## EIDSFTS [Ser to Glu mutant of DP-2 (EIDSFTS)]
[2]
  binding result: no binding (tested: lysate at 1 mg/ml of total protein)

## SIDEFTE [Ser to Glu mutant of DP-2 (SIDEFTE)]
[2]
  binding result: no binding (tested: lysate at 1 mg/ml of total protein)

## SIDEFTS [Ser to Glu mutant of DP-2 (SIDEFTS)]
[2]
  binding result: no binding (tested: lysate at 1 mg/ml of total protein)

## SIDSFTE [Ser to Glu mutant of DP-2 (SIDSFTE)]
[2]
  binding result: no binding (tested: lysate at 1 mg/ml of total protein)

B3: non-canonical FFAT motif of Kv2.1 (SFISCAT) (peptide)
peptide: SFISCAT
notes: The text says it was tested on the peptide array
[2]
  binding result: no binding (tested: lysate at 1 mg/ml of total protein)

## SFTSCAT [non-canonical FFAT motif of Kv2.2 (SFTSCAT)]
[2]
  binding result: no binding (tested: lysate at 1 mg/ml of total protein)
